Like-named read-outs stand apart in the source and are kept apart here.
Columns and labels:
human FcRn [1] = target: T1, human FcRn (human, UniProt P55899 24-297; P61769 21-119); experiment: SPR on human FcRn at pH 6.0, steady state KD expressed as ratio to the unmodified IGHG1 control
T1 construct: range 24-297;range 21-119; Alpha chain non-covalently associated with beta2-microglobulin; used as analyte at pH 6.0; also called human neonatal Fc receptor; soluble form of the extracellular region of the human FcRn

human FcRn [2] = target: T1, human FcRn; experiment: SPR (BIAcore 2000): immunoglobulin amine-coupled to a CM5 chip, human FcRn injected as analyte at pH 6.0, steady state affinity model
Protein G [3] = target: T2, Protein G (group C and G Streptococci, UniProt P19909 303-427); experiment: Protein G gradient mode chromatography (HiTrap Protein G HP column), A280 trace against pH gradient
T2 construct: Two commercial resins used (Sepharose 4 Fast Flow for capture-elution, HiTrap HP for gradient); also called Protein G Sepharose™ 4 Fast Flow resin; HiTrap™ Protein G HP column

Protein G [4] = target: T2, Protein G; experiment: as above; remark: listed apart in the source
Protein G [5] = target: T2, Protein G; experiment: as above; remark: listed apart in the source
MabSelect™ Protein A = target: T3, MabSelect™ Protein A (Staphylococcus aureus, UniProt P38507 37-327); experiment: Protein A gradient mode chromatography (HiTrap MabSelect column), A280 trace against pH gradient
T3 construct: also called HiTrap™ MabSelect™ Protein A column; MabSelect™ resin

T1 sequence (P55899 24-297 limits assumed, form in doubt, chain 1 of 2): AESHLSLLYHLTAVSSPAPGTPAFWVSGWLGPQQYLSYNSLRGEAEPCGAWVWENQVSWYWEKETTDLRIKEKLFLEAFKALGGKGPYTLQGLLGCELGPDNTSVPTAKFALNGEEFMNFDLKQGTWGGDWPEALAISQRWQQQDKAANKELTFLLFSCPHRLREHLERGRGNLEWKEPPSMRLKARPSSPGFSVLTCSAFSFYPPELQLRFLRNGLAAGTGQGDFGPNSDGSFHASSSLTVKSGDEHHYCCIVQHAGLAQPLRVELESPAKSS
T1 sequence (P61769 21-119 limits assumed, form in doubt, chain 2 of 2): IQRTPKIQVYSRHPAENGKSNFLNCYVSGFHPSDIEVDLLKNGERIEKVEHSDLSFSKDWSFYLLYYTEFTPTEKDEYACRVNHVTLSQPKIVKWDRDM

B1: Anti-hCD19 FAB-Fc S426M/M428G/H433D/N434A (antibody, human IgG1, kappa)
heavy chain: QVQLVQSGGGVVQPGRSLRLSCAASGVSLPDYGVSWVRQAPGKGLEWVAVIWGSETTYYNSALKSRFTISRDNSKNTLYLQMNSLRAEDTAVYYCAKHYYYGGSYAMDYWGQGTLVTVSSASTKGPSVFPLAPSSKSTSGGTAALGCLVKDYFPEPVTVSWNSGALTSGVHTFPAVLQSSGLYSLSSVVTVPSSSLGTQTYICNVNHKPSNTKVDKKVEPKSCDKTHTCPPCPAPELLGGPSVFLFPPKPKDTLMISRTPEVTCVVVDVSHEDPEVKFNWYVDGVEVHNAKTKPREEQYNSTYRVVSVLTVLHQDWLNGKEYKCKVSNKALPAPIEKTISKAKGQPREPQVYTLPPSRDELTKNQVSLTCLVKGFYPSDIAVEWESNGQPENNYKTTPPVLDSDGSFFLYSKLTVDKSRWQQGNVFSCMVGHEALDAHYTQKSLSLSPGK
light chain: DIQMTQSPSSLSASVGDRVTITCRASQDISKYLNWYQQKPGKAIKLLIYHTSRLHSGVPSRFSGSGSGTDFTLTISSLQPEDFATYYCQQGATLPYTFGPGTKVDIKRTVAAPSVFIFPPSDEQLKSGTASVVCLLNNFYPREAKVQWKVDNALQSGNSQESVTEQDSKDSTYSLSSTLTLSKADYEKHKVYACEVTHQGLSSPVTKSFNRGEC
For B1, the “KD ratio (IGHG1/mutant)” value (human FcRn [1]) was 0.48.

B2: anti-hCD19 FAB-Fc 113 (antibody, human IgG1, kappa)
heavy: QVQLVQSGGGVVQPGRSLRLSCAASGVSLPDYGVSWVRQAPGKGLEWVAVIWGSETTYYNSALKSRFTISRDNSKNTLYLQMNSLRAEDTAVYYCAKHYYYGGSYAMDYWGQGTLVTVSSASTKGPSVFPLAPSSKSTSGGTAALGCLVKDYFPEPVTVSWNSGALTSGVHTFPAVLQSSGLYSLSSVVTVPSSSLGTQTYICNVNHKPSNTKVDKKVEPKSCDKTHTCPPCPAPELLGGPSVFLFPPKPKDTLMISRTPEVTCVVVDVSHEDPEVKFNWYVDGVEVHNAKTKPREEQYNSTYRVVSVLTVLHQDWLNGKEYKCKVSNKALPAPIEKTISKAKGQPREPQVYTLPPSREEMTKNQVSLTCLVKGFYPSDIAVEWESSGQPENNYNTTPPMLDSDGSFFLYSKLTVDKSRWQQGNIFSCSVMHEALHNRFTQKSLSLSPGK
light: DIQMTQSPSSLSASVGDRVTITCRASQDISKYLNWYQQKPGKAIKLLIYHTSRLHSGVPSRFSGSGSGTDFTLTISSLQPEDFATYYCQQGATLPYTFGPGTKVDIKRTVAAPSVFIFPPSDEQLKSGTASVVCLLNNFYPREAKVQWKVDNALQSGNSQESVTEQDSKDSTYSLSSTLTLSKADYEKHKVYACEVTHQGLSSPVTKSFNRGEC
notes: copies: 2 + 2
With B2 the “KD ratio (IGHG1/mutant)” value (human FcRn [1]) was 0.76.

B3: anti-hCD19 FAB-Fc 133 (antibody, human IgG1, kappa)
heavy: QVQLVQSGGGVVQPGRSLRLSCAASGVSLPDYGVSWVRQAPGKGLEWVAVIWGSETTYYNSALKSRFTISRDNSKNTLYLQMNSLRAEDTAVYYCAKHYYYGGSYAMDYWGQGTLVTVSSASTKGPSVFPLAPSSKSTSGGTAALGCLVKDYFPEPVTVSWNSGALTSGVHTFPAVLQSSGLYSLSSVVTVPSSSLGTQTYICNVNHKPSNTKVDKKVEPKSCDKTHTCPPCPAPELLGGPSVFLFPPKPKDTLMISRTPEVTCVVVDVSHEDPEVQFKWYVDGVEVHNAKTKPREEQYNSTFRVVSVLTVLHQDWLNGKEYKCKVSNKALPAPIEKTISKTKGQPREPQVYTLPPSREEMTKNQVSLTCLVKGFYPSDIAVEWESSGQPENNYNTTPPMLDSDGSFFLYSKLTVDKSRWQQGNIFSCSVMHEALHNRFTQKSLSLSPGK
light: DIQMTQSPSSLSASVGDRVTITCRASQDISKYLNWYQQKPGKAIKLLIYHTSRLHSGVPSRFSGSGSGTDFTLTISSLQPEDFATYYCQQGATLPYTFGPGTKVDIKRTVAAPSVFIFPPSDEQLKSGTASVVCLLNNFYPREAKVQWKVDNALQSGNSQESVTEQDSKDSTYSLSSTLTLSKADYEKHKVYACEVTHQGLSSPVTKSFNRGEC
notes: copies: 2 + 2
B3 was tested, and the “KD ratio (IGHG1/mutant)” value (human FcRn [1]) was 0.73 and the Kd (human FcRn [2]) was 2680 nM.

B4: Fc M252A/E380A/E382A/Y436A/Q438A (other)
chain: DKTHTCPPCPAPELLGGPSVFLFPPKPKDTLAISRTPEVTCVVVDVSHEDPEVKFNWYVDGVEVHNAKTKPREEQYNSTYRVVSVLTVLHQDWLNGKEYKCKVSNKALPAPIEKTISKAKGQPREPQVYTLPPSRDELTKNQVSLTCLVKGFYPSDIAVAWASNGQPENNYKTTPPVLDSDGSFFLYSKLTVDKSRWQQGNVFSCSVMHEALHNHATAKSLSLSPGK
notes: Homo-dimeric human IGHG1 Fc variant, EU numbering
B4: no binding (Protein G [3]).

B5: Fc S254M/E380M/E382L/S426M/M428G (other)
chain: DKTHTCPPCPAPELLGGPSVFLFPPKPKDTLMIMRTPEVTCVVVDVSHEDPEVKFNWYVDGVEVHNAKTKPREEQYNSTYRVVSVLTVLHQDWLNGKEYKCKVSNKALPAPIEKTISKAKGQPREPQVYTLPPSRDELTKNQVSLTCLVKGFYPSDIAVMWLSNGQPENNYKTTPPVLDSDGSFFLYSKLTVDKSRWQQGNVFSCMVGHEALHNHYTQKSLSLSPGK
notes: as for B4
B5: no binding (Protein G [4]).

B6: Fc S426M/M428G/H433D/N434A (other)
chain: DKTHTCPPCPAPELLGGPSVFLFPPKPKDTLMISRTPEVTCVVVDVSHEDPEVKFNWYVDGVEVHNAKTKPREEQYNSTYRVVSVLTVLHQDWLNGKEYKCKVSNKALPAPIEKTISKAKGQPREPQVYTLPPSRDELTKNQVSLTCLVKGFYPSDIAVEWESNGQPENNYKTTPPVLDSDGSFFLYSKLTVDKSRWQQGNVFSCMVGHEALDAHYTQKSLSLSPGK
notes: as for B4
B6: no binding (Protein G [5]).

B7: Anti-HER2 FAB R19G/T57A/Y59A (Fab)
heavy chain: EVQLVESGGGLVQPGGSLGLSCAASGFNIKDTYIHWVRQAPGKGLEWVARIYPTNGYARAADSVKGRFTISADTSKNTAYLQMNSLRAEDTAVYYCSRWGGDGFYAMDYWGQGTLVTVSSASTKGPSVFPLAPSSKSTSGGTAALGCLVKDYFPEPVTVSWNSGALTSGVHTFPAVLQSSGLYSLSSVVTVPSSSLGTQTYICNVNHKPSNTKVDKKVEPKSC
light chain: not shown
notes: also called combination R19G/T57A/Y59A
B7: no binding (MabSelect™ Protein A).

— US20150239991A1 (GLENMARK PHARMACEUTICALS S A, published 2015)
